Experimental data: patent US20200024330A1
Positions count from the first letter of the chain named.

What was measured:
Experiment in all cases: cell-based or functional assay
[1] = target: HIV-1 JR-CSF Env D417A (HIV-1 (isolate JR-CSF)) (UniProt P20871)
[2] = target: Env of the clade G HIV-1 pseudoviruses of the cross-clade 162-pseudovirus panel (n = 15)
[3] = target: HIV-1 JR-CSF Env N386A (HIV-1 isolate JR-CSF) (UniProt P20871)
[4] = target: HIV-1 JR-CSF Env T202A (HIV-1 JR-CSF) (UniProt P20871)
[5] = target: Env of the clade AG HIV-1 pseudoviruses of the cross-clade 162-pseudovirus panel (n = 10)
[6] = target: Env of the clade D HIV-1 pseudoviruses of the cross-clade 162-pseudovirus panel (n = 25)
[7] = target: HIV-1 JR-CSF Env T394A (HIV-1 (isolate JR-CSF)) (UniProt P20871)
[8] = target: HIV-1 JR-CSF Env E321aA (HIV-1 isolate JR-CSF) (UniProt P20871)
[9] = target: HIV-1 JR-CSF Env D325A (HIV-1 isolate JR-CSF) (UniProt P20871)
[10] = target: HIV-1 JR-CSF Env Q422A (HIV-1 (isolate JR-CSF)) (UniProt P20871)
[11] = target: HIV-1 JR-CSF Env N295A (HIV-1 JR-CSF) (UniProt P20871)
[12] = target: HIV-1 JR-CSF Env T303A (HIV-1 JR-CSF) (UniProt P20871)
[13] = target: HIV-1 JR-CSF Env K421A (HIV-1 (isolate JR-CSF)) (UniProt P20871)
[14] = target: HIV-1 JR-CSF Env I326A (HIV-1 isolate JR-CSF) (UniProt P20871)
[15] = target: HIV-1 JR-CSF Env T320A (HIV-1 isolate JR-CSF) (UniProt P20871)
[16] = target: HIV-1 JR-CSF Env T319A (HIV-1 isolate JR-CSF) (UniProt P20871)
[17] = target: HIV-1 JR-CSF Env R327A (HIV-1 isolate JR-CSF) (UniProt P20871)
[18] = target: HIV-1 JR-CSF Env N241A (HIV-1 JR-CSF) (UniProt P20871)
[19] = target: HIV-1 JR-CSF Env I414A (HIV-1 (isolate JR-CSF)) (UniProt P20871)
[20] = target: Env of the clade A HIV-1 pseudoviruses of the cross-clade 162-pseudovirus panel (n = 26)
[21] = target: HIV-1 JR-CSF Env I307A (HIV-1 JR-CSF) (UniProt P20871)
[22] = target: HIV-1 JR-CSF Env Q337A (HIV-1 isolate JR-CSF) (UniProt P20871)
[23] = target: HIV-1 JR-CSF Env K343A (HIV-1 isolate JR-CSF) (UniProt P20871)
[24] = target: HIV-1 JR-CSF Env K305A (HIV-1 JR-CSF) (UniProt P20871)
[25] = target: HIV-1 Env of isolate JR-CSF (HIV-1) (UniProt P20871)
[26] = target: HIV-1 JR-CSF Env V292A (HIV-1 JR-CSF) (UniProt P20871)
[27] = target: HIV-1 Env of isolate 92TH021 (HIV-1)
[28] = target: HIV-1 JR-CSF Env S393A (HIV-1 (isolate JR-CSF)) (UniProt P20871)
[29] = target: HIV-1 JR-CSF Env N262A (HIV-1 JR-CSF) (UniProt P20871)
[30] = target: HIV-1 JR-CSF Env N332A (HIV-1 isolate JR-CSF) (UniProt P20871)
[31] = target: HIV-1 JR-CSF Env T388A (HIV-1 (isolate JR-CSF)) (UniProt P20871)
[32] = target: HIV-1 JR-CSF Env N276A (HIV-1 JR-CSF) (UniProt P20871)
[33] = target: HIV-1 JR-CSF Env N301A (HIV-1 JR-CSF) (UniProt P20871)
[34] = target: HIV-1 JR-CSF Env N339A (HIV-1 isolate JR-CSF) (UniProt P20871)
[35] = target: HIV-1 JR-CSF Env R315A (HIV-1 isolate JR-CSF) (UniProt P20871)
[36] = target: HIV-1 JR-CSF Env N396A (HIV-1 (isolate JR-CSF)) (UniProt P20871)
[37] = target: HIV-1 JR-CSF Env F317A (HIV-1 isolate JR-CSF) (UniProt P20871)
[38] = target: HIV-1 JR-CSF Env N411A (HIV-1 (isolate JR-CSF)) (UniProt P20871)
[39] = target: HIV-1 JR-CSF Env S334A (HIV-1 isolate JR-CSF) (UniProt P20871)

B1: PGT-126 (antibody, V domains shown)
VH: QPQLQESGPGLVEASETLSLTCTVSGDSTAACDYFWGWVRQPPGKGLEWIGGLSHCAGYYNTGWTYHNPSLKSRLTISLDTPKNQVFLKLNSVTAADTAIYYCARFDGEVLVYHDWPKPAWVDLWGRGTLVTVSS
VL: QSALTQPPSASGSPGQSISISCTGTSNRFVSWYQQHPGKAPKLVIYGVNKRPSGVPDRFSGSKSGNTASLTVSGLQTDDEAVYYCSSLVGNWDVIFGGGTKLTVL
With B1 as the binder, how does the Fold IC50 increase relative to wild-type [1] read?
Its Fold IC50 increase relative to wild-type is 1 fold.

And the Median IC50 against viruses neutralized with an IC50 <50 µg/ml [2]?
Its Median IC50 against viruses neutralized with an IC50 <50 µg/ml is 0.18 µg/mL.

What about the Fold IC50 increase relative to wild-type [3] of the same binder?
Its Fold IC50 increase relative to wild-type is 0.9 fold.

What about the Fold IC50 increase relative to wild-type [4] of the same binder?
Its Fold IC50 increase relative to wild-type is 0.8 fold.

And the Median IC50 against viruses neutralized with an IC50 <50 µg/ml [5]?
Its Median IC50 against viruses neutralized with an IC50 <50 µg/ml is 0.03 µg/mL.

And the Median IC50 against viruses neutralized with an IC50 <50 µg/ml [6]?
Its Median IC50 against viruses neutralized with an IC50 <50 µg/ml is 0.04 µg/mL.

And the Fold IC50 increase relative to wild-type [7]?
The Fold IC50 increase relative to wild-type was 0.6 fold.

What about the Fold IC50 increase relative to wild-type [8] of the same binder?
The Fold IC50 increase relative to wild-type was 0.6 fold.

And the Fold IC50 increase relative to wild-type [9]?
Its Fold IC50 increase relative to wild-type is 0.5 fold.

What about the Fold IC50 increase relative to wild-type [10] of the same binder?
The Fold IC50 increase relative to wild-type was 1.1 fold.

And the Fold IC50 increase relative to wild-type [11]?
The Fold IC50 increase relative to wild-type was 0.9 fold.

And the Fold IC50 increase relative to wild-type [12]?
Its Fold IC50 increase relative to wild-type is over 250 fold.

And the Fold IC50 increase relative to wild-type [13]?
The Fold IC50 increase relative to wild-type was 0.7 fold.

And the Fold IC50 increase relative to wild-type [14]?
Its Fold IC50 increase relative to wild-type is 0.8 fold.

What about the Fold IC50 increase relative to wild-type [15] of the same binder?
Its Fold IC50 increase relative to wild-type is 0.6 fold.

What about the Fold IC50 increase relative to wild-type [16] of the same binder?
The Fold IC50 increase relative to wild-type was 0.8 fold.

What about the Fold IC50 increase relative to wild-type [17] of the same binder?
Its Fold IC50 increase relative to wild-type is 2.2 fold.

What about the Fold IC50 increase relative to wild-type [18] of the same binder?
Its Fold IC50 increase relative to wild-type is 0.6 fold.

What about the Fold IC50 increase relative to wild-type [19] of the same binder?
The Fold IC50 increase relative to wild-type was 0.4 fold.

What about the Median IC50 against viruses neutralized with an IC50 <50 µg/ml [20] of the same binder?
Its Median IC50 against viruses neutralized with an IC50 <50 µg/ml is 0.01 µg/mL.

What about the Fold IC50 increase relative to wild-type [21] of the same binder?
Its Fold IC50 increase relative to wild-type is 1.8 fold.

What about the Fold IC50 increase relative to wild-type [22] of the same binder?
The Fold IC50 increase relative to wild-type was 0.4 fold.

And the Fold IC50 increase relative to wild-type [23]?
The Fold IC50 increase relative to wild-type was 1.2 fold.

What about the Fold IC50 increase relative to wild-type [24] of the same binder?
The Fold IC50 increase relative to wild-type was 1 fold.

What about the Polyclonal Transfectant Neutralization Index (well 5141 B17) [25] of the same binder?
Its Polyclonal Transfectant Neutralization Index (well 5141 B17) is 102.

What about the Primary Neutralization Index (B cell culture well 5141 B17) [25] of the same binder?
Its Primary Neutralization Index (B cell culture well 5141 B17) is 1410.

What about the Fold IC50 increase relative to wild-type [26] of the same binder?
Its Fold IC50 increase relative to wild-type is 5 fold.

What about the IC50 (µg/mL), pseudovirus neutralization [27] of the same binder?
The IC50 (µg/mL), pseudovirus neutralization was 0.197 µg/mL.

And the Polyclonal Transfectant Neutralization Index (well 5141 B17) [27]?
Its Polyclonal Transfectant Neutralization Index (well 5141 B17) is 2.74.

And the Primary Neutralization Index (B cell culture well 5141 B17) [27]?
Its Primary Neutralization Index (B cell culture well 5141 B17) is 2.3.

What about the Fold IC50 increase relative to wild-type [28] of the same binder?
The Fold IC50 increase relative to wild-type was 0.5 fold.

And the Fold IC50 increase relative to wild-type [29]?
Its Fold IC50 increase relative to wild-type is 1 fold.

And the Fold IC50 increase relative to wild-type [30]?
The Fold IC50 increase relative to wild-type was 181 fold.

And the Fold IC50 increase relative to wild-type [31]?
Its Fold IC50 increase relative to wild-type is 0.6 fold.

What about the Fold IC50 increase relative to wild-type [32] of the same binder?
Its Fold IC50 increase relative to wild-type is 0.9 fold.

And the Fold IC50 increase relative to wild-type [33]?
Its Fold IC50 increase relative to wild-type is 314 fold.

And the Fold IC50 increase relative to wild-type [34]?
Its Fold IC50 increase relative to wild-type is 0.6 fold.

What about the Fold IC50 increase relative to wild-type [35] of the same binder?
The Fold IC50 increase relative to wild-type was 1 fold.

And the Fold IC50 increase relative to wild-type [36]?
The Fold IC50 increase relative to wild-type was 1.7 fold.

And the Fold IC50 increase relative to wild-type [37]?
Its Fold IC50 increase relative to wild-type is 1 fold.

And the Fold IC50 increase relative to wild-type [38]?
The Fold IC50 increase relative to wild-type was 0.7 fold.

And the Fold IC50 increase relative to wild-type [39]?
Its Fold IC50 increase relative to wild-type is over 30 fold.

B2: PGT-127 (antibody, V domains shown)
VH: QPQLQESGPGLVEASETLSLTCTVSGDSTGRCNYFWGWVRQPPGKGLEWIGSLSHCRSYYNTDWTYHNPSLKSRLTISLDTPKNQVFLRLTSVTAADTATYYCARFGGEVLVYRDWPKPAWVDLWGRGTLVVTVS
VL: B1 VL with S19T, R28N, H36Y, G47E, N66S, T77A, A81G
What does the source list for B2?
Fold IC50 increase relative to wild-type [1]: 0.4 fold; Median IC50 against viruses neutralized with an IC50 <50 µg/ml [2]: 0.22 µg/mL; Fold IC50 increase relative to wild-type [3]: 0.6 fold; Fold IC50 increase relative to wild-type [4]: 1.8 fold; Median IC50 against viruses neutralized with an IC50 <50 µg/ml [5]: 0.04 µg/mL; Median IC50 against viruses neutralized with an IC50 <50 µg/ml [6]: 0.49 µg/mL; Fold IC50 increase relative to wild-type [7]: 1.6 fold; Fold IC50 increase relative to wild-type [8]: 1.9 fold; Fold IC50 increase relative to wild-type [9]: 0.93 fold; Fold IC50 increase relative to wild-type [10]: 0.1 fold; Fold IC50 increase relative to wild-type [11]: 2.3 fold; Fold IC50 increase relative to wild-type [12]: > 500 fold; Fold IC50 increase relative to wild-type [13]: 1.5 fold; Fold IC50 increase relative to wild-type [14]: 3.5 fold; Fold IC50 increase relative to wild-type [15]: 1.8 fold; Fold IC50 increase relative to wild-type [16]: 1 fold; Fold IC50 increase relative to wild-type [17]: 1.8 fold; Fold IC50 increase relative to wild-type [18]: 0.6 fold; Fold IC50 increase relative to wild-type [19]: 2.2 fold; Median IC50 against viruses neutralized with an IC50 <50 µg/ml [20]: 0.02 µg/mL; Fold IC50 increase relative to wild-type [21]: 10.2 fold; Fold IC50 increase relative to wild-type [22]: 0.5 fold; Fold IC50 increase relative to wild-type [23]: 1 fold; Fold IC50 increase relative to wild-type [24]: 2.6 fold; Polyclonal Transfectant Neutralization Index (well 5145 B14) [25]: 1.61; Primary Neutralization Index (B cell culture well 5145 B14) [25]: 31.1; Fold IC50 increase relative to wild-type [26]: 0.9 fold; IC50 (µg/mL), pseudovirus neutralization [27]: > 50 µg/mL; Polyclonal Transfectant Neutralization Index (well 5145 B14) [27]: 0.94; Primary Neutralization Index (B cell culture well 5145 B14) [27]: 1; Fold IC50 increase relative to wild-type [28]: 1.2 fold; Fold IC50 increase relative to wild-type [29]: 1.4 fold; Fold IC50 increase relative to wild-type [30]: > 100 fold; Fold IC50 increase relative to wild-type [31]: 0.5 fold; Fold IC50 increase relative to wild-type [32]: 1.6 fold; Fold IC50 increase relative to wild-type [33]: > 250 fold; Fold IC50 increase relative to wild-type [34]: 1.1 fold; Fold IC50 increase relative to wild-type [35]: 0.3 fold; Fold IC50 increase relative to wild-type [36]: 2.4 fold; Fold IC50 increase relative to wild-type [37]: 0.2 fold; Fold IC50 increase relative to wild-type [38]: 0.8 fold; Fold IC50 increase relative to wild-type [39]: > 500 fold
